Test results taken from patent US20090029376.
Changes are numbered by the printed parent chain.

Experiments:
Experiment in all cases: cleavage_in_vitro
[1] = biological target: T1, HpaI (Haemophilus parainfluenzae) (UniProt P29537); settings: NEB4, 37 C
T1 sequence: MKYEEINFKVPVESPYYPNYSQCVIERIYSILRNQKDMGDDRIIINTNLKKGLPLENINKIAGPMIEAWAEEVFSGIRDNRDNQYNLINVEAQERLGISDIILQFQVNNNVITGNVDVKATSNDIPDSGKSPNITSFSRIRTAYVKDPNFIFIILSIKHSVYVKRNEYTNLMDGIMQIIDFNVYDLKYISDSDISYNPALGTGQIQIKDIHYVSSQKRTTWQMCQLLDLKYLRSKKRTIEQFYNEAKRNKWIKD

[2] = biological target: T2, BamHI (Bacillus amyloliquefaciens) (UniProt P23940); settings: NEB4, 37 C
T2 sequence: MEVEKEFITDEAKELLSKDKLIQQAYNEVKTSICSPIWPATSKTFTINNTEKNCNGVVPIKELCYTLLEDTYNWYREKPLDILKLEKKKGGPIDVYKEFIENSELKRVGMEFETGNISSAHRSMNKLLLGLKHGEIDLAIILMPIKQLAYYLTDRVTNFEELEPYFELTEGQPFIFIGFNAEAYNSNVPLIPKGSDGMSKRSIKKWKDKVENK

[3] = system: T3, BstXI (Bacillus stearothermophilus); settings: NEB4, 55 C; Table 2 prints 4
T3 sequence: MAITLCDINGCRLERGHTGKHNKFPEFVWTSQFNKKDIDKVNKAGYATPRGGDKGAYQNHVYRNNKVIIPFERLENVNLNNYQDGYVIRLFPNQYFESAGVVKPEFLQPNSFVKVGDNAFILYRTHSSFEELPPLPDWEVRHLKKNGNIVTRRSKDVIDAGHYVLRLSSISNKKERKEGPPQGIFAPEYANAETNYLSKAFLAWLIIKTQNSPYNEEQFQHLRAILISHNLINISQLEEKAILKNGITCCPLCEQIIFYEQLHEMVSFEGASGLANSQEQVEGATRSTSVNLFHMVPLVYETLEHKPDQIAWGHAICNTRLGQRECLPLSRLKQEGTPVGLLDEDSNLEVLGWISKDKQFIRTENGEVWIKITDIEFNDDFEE

[4] = system: T4, SspI (Sphaerotilus species); settings: NEB4, 37 C
T4 sequence: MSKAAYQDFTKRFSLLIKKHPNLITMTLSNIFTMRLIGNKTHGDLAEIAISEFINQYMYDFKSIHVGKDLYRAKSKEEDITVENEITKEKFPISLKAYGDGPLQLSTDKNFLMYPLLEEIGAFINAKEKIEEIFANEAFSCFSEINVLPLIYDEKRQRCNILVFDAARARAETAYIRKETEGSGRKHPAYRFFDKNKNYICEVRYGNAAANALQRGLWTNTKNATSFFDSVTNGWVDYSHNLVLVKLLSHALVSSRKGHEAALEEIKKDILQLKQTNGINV

[5] = system: T5, SphI (Streptomyces phaeochromogenes); settings: NEB4, 37 C
T5 sequence: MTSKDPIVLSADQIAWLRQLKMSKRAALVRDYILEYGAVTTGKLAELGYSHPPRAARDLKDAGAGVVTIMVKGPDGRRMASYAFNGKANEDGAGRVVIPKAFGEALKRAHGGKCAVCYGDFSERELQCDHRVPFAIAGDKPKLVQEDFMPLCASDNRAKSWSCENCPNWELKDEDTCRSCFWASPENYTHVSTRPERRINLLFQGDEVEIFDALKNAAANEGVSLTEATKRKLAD

[6] = biological target: EcoRI(K62A) K62A (Escherichia coli RY13) (UniProt P00642); settings: NEB4, 37 C
[7] = system: T6, NcoI-HF A2T/R31A (Nocardia corallina); settings: NEB4, 37 C
T6 sequence: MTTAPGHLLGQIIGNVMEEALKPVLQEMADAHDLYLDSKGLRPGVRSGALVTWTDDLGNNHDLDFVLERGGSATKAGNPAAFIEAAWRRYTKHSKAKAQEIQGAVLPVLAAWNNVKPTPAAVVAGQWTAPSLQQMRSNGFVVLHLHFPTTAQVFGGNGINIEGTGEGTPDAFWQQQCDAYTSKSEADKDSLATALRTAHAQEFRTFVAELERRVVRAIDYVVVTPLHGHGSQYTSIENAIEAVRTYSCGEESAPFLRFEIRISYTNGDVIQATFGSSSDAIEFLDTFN

[8] = system: T7, BspQI (Bacillus sphaericus); settings: NEB4, 50 C
T7 sequence: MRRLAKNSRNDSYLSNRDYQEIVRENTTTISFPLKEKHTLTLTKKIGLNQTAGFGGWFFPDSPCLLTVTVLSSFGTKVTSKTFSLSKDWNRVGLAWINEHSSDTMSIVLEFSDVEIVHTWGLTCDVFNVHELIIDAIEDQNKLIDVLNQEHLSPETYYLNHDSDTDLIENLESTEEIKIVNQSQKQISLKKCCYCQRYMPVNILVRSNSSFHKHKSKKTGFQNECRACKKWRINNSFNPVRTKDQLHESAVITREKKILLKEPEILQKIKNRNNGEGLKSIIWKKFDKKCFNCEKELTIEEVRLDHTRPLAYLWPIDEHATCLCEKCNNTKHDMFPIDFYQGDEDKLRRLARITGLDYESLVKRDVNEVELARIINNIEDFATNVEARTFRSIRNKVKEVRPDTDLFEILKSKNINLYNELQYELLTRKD

[9] = biological target: T8, HindIII (Haemophilus influenzae Rd) (UniProt P43870); settings: NEB4, 37 C
T8 sequence: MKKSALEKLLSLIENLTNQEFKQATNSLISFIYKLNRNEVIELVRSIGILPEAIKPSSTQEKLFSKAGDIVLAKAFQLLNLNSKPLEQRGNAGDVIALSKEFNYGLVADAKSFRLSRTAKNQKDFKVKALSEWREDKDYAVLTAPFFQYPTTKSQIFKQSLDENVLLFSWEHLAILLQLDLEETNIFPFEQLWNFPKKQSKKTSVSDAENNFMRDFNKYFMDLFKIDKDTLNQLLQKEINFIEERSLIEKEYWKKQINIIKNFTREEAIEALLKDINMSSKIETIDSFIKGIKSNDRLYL

[10] = system: T9, NcoI (Nocardia corallina); settings: NEB4, 37 C
T9 sequence: T6 sequence with T2A, A31R

lambda phage DNA
activity (fidelity index) [1]: 16 | activity (fidelity index) [2]: 4 | activity (fidelity index) [3]: 32 | activity (fidelity index) [4]: 16 | activity (fidelity index) [5]: 16 | activity (fidelity index) [6]: 32000 | activity (fidelity index) [7]: > 16000 | activity (fidelity index) [8]: 4 | activity (fidelity index) [9]: 32 | activity (fidelity index) [10]: 32
